“Also recorded” adds a separate entry of the source.
Columns and labels:
2-O sulfatase [1] = assay: desulfation of 2-O sulfated chondroitin disaccharides under extended and exhaustive conditions; assay type: biochemical, F. heparinum; details: 4× higher enzyme concentration, 20 minute period
Method: Substrate specificity and kinetics experiments using different disaccharide substrates—For substrate specificity experiments, the following heparin disaccharide substrates were used: ΔU2SHNAc, ΔU2SHNAc,6S, ΔU2SHNS, and ΔU2SHNS,6S. In addition, the chondroitin disaccharides ΔU2SGalNAc,4S and ΔU2SGalNAc,6S were also studied. Disaccharide concentrations for each respective substrate were varied from 0.1 mM to 4 mM. Initial rates (Vo) were extrapolated from linear activities representing <20% substrate turnover and fit to pseudo first-order kinetics. Standard reactions included 50 mM imidazole, pH 6.5, 50 mM NaCl, 500 μM disaccharide, and 25 nM of enzyme (2-O ΔN^1-24) in a 20 μL reaction volume. […] Desulfation at the 2-OH position of the disaccharide was measured by capillary electrophoresis. […] Activity was measured as moles of desulfated product formed and was calculated from the measured area of the product peak based on molar conversion factors empirically determined from standard curves. […] Each unsaturated disaccharide peak was detected by UV absorption at 232 nm. All the substrate saturation kinetics were measured under Michaelis-Menten conditions.
To determine whether either or both of these 2-O sulfated chondroitin disaccharides could be quantitatively desulfated under exhaustive conditions, we carried out an 18 hour incubation at 30° C. that included 5 mM of substrate and 5 μM enzyme.

[2] = molecular target: T1, 2-O sulfatase (2-O ΔN^1-24) (Pedobacter heparinus, UniProt C6Y1N2); assay: exolytic desulfation of oligosaccharides by 2-O sulfatase (CE compositional analysis and MALDI-MS); assay type: biochemical, F. heparinum
Method: Heparin compositional analyses by capillary electrophoresis and MALDI-MS—Approximately 10 μg of the AT-10 oligosaccharide were incubated with 100 picomoles of 2-O ΔN^1-24 in a 40 μL reaction volume at 30° C. 15 μL aliquots were removed at 4 hours and 17 hours and heat inactivated at 95° C. The oligosaccharide reaction products (along with 15 μL of a minus sulfatase control) were subjected to an exhaustive heparinase I and III digestion prior to CE-based compositional analysis. Desulfation of the decasaccharide was assayed in parallel by MALDI-MS using established methods (Rhomberg, A. J., Ernst, S., Sasisekharan, R., and Biemann, K. (1998) Proc Natl Acad Sci USA 95(8), 4176-81.).
Exolytic Action of the 2-O sulfatase—We addressed this important question using as a substrate the purified heparin-derived AT-10 decasaccharide ΔU2SHNS,6SI2SHNS,6SI2SHNS,6SIHNAc,6SGHNS,3S,6S. […] The substrate was first exhaustively treated with the 2-O sulfatase. The 2-O desulfated decasaccharide was then subjected to an exhaustive heparinase treatment.

2-O sulfatase [3] = assay: effect of ionic strength, metal ions, EDTA, buffers and cysteine-reactive agents on 2-O sulfatase activity; assay type: biochemical, F. heparinum; details: for effect of additive on enzyme activity: EDTA up to 1 mM, CaCl2, MgCl2, MnCl2 up to 10 mM, DTNB, DTT, 50 mM phosphate buffer pH 6.5
Method: For pilot experiments measuring the relative effect of ionic strength on 2-O sulfatase activity, the NaCl concentration was varied from 0.05 to 1 M in 50 mM MES buffer (pH 6.5) that included 500 μM of the disulfated disaccharide ΔU2SHNS,6S and 50 nM enzyme. The effect of pH on sulfatase activity was assessed as a function of catalytic efficiency by measuring kinetic parameters in the following two overlapping pH buffer systems ranging from 5.0 to 8.0: 50 mM MES at pH 5.0, 5.5, 6.5, and 7.0; 50 mM MOPS at pH 6.5, 7.0, 7.5 and 8.0. Assays included 25 nM enzyme, 50 mM NaCl and varying concentrations of the disulfated disaccharide substrate ΔU2SHNS. Km and kcat values were extrapolated from Vo vs. [S] curves fit to the Michaelis-Menten equation by a non-linear least squares regression and the relative kcat/Km ratios plotted as a function of buffer pH. […] Relative activities were measured at a single saturating substrate concentration (4 mM) using ΔU2SHNS.
We also examined 2-O sulfatase activity relative to ionic composition.

[4] = molecular target: T1, 2-O sulfatase (2-O ΔN^1-24); assay: 2-O sulfatase assay and disaccharide substrate kinetics by capillary electrophoresis; assay type: biochemical, F. heparinum
Method: (§1) 2-O sulfatase assay and determination of biochemical reaction conditions—2-O sulfatase activity was measured using the unsaturated heparin trisulfated disaccharide ΔU2SHNS,6S or the disulfated disaccharide ΔU2SHNS as well as the disulfated disaccharide ΔUHNS,6S lacking a sulfate at the 2-OH position. Standard reactions included 50 mM imidazole, pH 6.5, 50 mM NaCl, 500 μM disaccharide, and 25 nM of enzyme (2-O ΔN^1-24) in a 20 μL reaction volume. The reaction was carried out for 30 seconds at 30° C. Prior to its addition, the enzyme was serially diluted to 250 nM in ice cold 1X imidazole buffer. The assay was initiated by the addition of 2 μL of this 10 X enzyme stock to 18 μL of reaction mixture. The enzyme was inactivated by heating at 95° C. 11 for five minutes in pre-heated 0.5 mL eppendorf tubes. Desulfation at the 2-OH position of the disaccharide was measured by capillary electrophoresis. Resolution of substrate and product were achieved under standard conditions described for HSGAG compositional analyses (Rhomberg, A. J., Ernst, S., Sasisekharan, R., and Biemann, K. (1998) Proc Natl Acad Sci USA 95(8), 4176-81). […] For the detection of mono- and di-sulfated disaccharide products, total electrophoresis time was 20 minutes. Each unsaturated disaccharide peak was detected by UV absorption at 232 nm.
(§2) Substrate specificity and kinetics experiments using different disaccharide substrates—For substrate specificity experiments, the following heparin disaccharide substrates were used: ΔU2SHNAc, ΔU2SHNAc,6S, ΔU2SHNS, and ΔU2SHNS,6S. In addition, the chondroitin disaccharides ΔU2SGalNAc,4S and ΔU2SGalNAc,6S were also studied. Disaccharide concentrations for each respective substrate were varied from 0.1 mM to 4 mM. Initial rates (Vo) were extrapolated from linear activities representing <20% substrate turnover and fit to pseudo first-order kinetics. Standard reactions included 50 mM imidazole, pH 6.5, 50 mM NaCl, 500 μM disaccharide, and 25 nM of enzyme (2-O ΔN^1-24) in a 20 μL reaction volume. The reaction was carried out for 30 seconds at 30° C.

[5] = substrate: CC(=O)N[C@H]1C(O)O[C@H](CO)[C@@H](O[C@@H]2OC(C(=O)O)=C[C@H](O)[C@H]2OS(=O)(=O)O)[C@@H]1O; assay: as above; assay type: biochemical, F. heparinum; details: other: 25 nM 2-O ΔN^1-24, 50 mM imidazole pH 6.5, 50 mM NaCl, 30° C., chondroitin disaccharide approximated from double reciprocal plots
Method: as §1, §2

[6] = substrate: CC(=O)N[C@H]1C(O)O[C@H](COS(=O)(=O)O)[C@@H](O[C@@H]2OC(C(=O)O)=C[C@H](O)[C@H]2OS(=O)(=O)O)[C@@H]1O; assay: as above; assay type: biochemical, F. heparinum; details: other: 25 nM 2-O ΔN^1-24, 50 mM imidazole pH 6.5, 50 mM NaCl, 30° C., chondroitin disaccharide approximated from double reciprocal plots
Method: as §1, §2

[7] = substrate: O=C(O)C1=C[C@H](O)[C@@H](OS(=O)(=O)O)[C@H](O[C@H]2[C@H](O)[C@@H](NS(=O)(=O)O)C(O)O[C@@H]2CO)O1; assay: as above; assay type: biochemical, F. heparinum; details: other: 25 nM 2-O ΔN^1-24, 50 mM imidazole pH 6.5, 50 mM NaCl, 30° C., chondroitin disaccharide approximated from double reciprocal plots
Method: as §1, §2

[8] = substrate: O=C(O)C1=C[C@H](O)[C@@H](OS(=O)(=O)O)[C@H](O[C@H]2[C@H](O)[C@@H](NS(=O)(=O)O)C(O)O[C@@H]2COS(=O)(=O)O)O1; assay: as above; assay type: biochemical, F. heparinum; details: other: 25 nM 2-O ΔN^1-24, 50 mM imidazole pH 6.5, 50 mM NaCl, 30° C., chondroitin disaccharide approximated from double reciprocal plots
Method: as §1, §2

[9] = biochemical reaction conditions (pH, ionic strength, temperature) for recombinant 2-O sulfatase; details: for activity at outlying pH values of 5 and 8: pH 5.0 and 8.0
Method: FIG. 6 provides the in vitro biochemical reaction conditions for the recombinant 2-O sulfatase. Panel (A) illustrates the effect of pH. Sulfatase catalytic efficiency (kcat/Km) was measured as a function of varying pH from 5 to 8 using two overlapping buffers: 50 mM MES (solid circles) and 50 mM MOPS (open circles). Inset: Relative effect of three different assay buffers (each at pH 6.5) on optimal enzyme activity. 1.50 mM MES; 2.50 mM imidazole; 3.50 mM sodium phosphate. Panel (B) illustrates the effect of ionic strength. Shown here is % activity normalized to 50 mM NaCl. Panel (C) illustrates the effect of reaction temperature. Data is normalized to 30° C. activity (100%). The unsaturated disaccharide ΔU2SHNS was used in all three experiments.
For pilot experiments measuring the relative effect of ionic strength on 2-O sulfatase activity, the NaCl concentration was varied from 0.05 to 1 M in 50 mM MES buffer (pH 6.5) that included 500 μM of the disulfated disaccharide ΔU2SHNS,6S and 50 nM enzyme. The effect of pH on sulfatase activity was assessed as a function of catalytic efficiency by measuring kinetic parameters in the following two overlapping pH buffer systems ranging from 5.0 to 8.0: 50 mM MES at pH 5.0, 5.5, 6.5, and 7.0; 50 mM MOPS at pH 6.5, 7.0, 7.5 and 8.0. Assays included 25 nM enzyme, 50 mM NaCl and varying concentrations of the disulfated disaccharide substrate ΔU2SHNS. Km and kcat values were extrapolated from Vo vs. [S] curves fit to the Michaelis-Menten equation by a non-linear least squares regression and the relative kcat/Km ratios plotted as a function of buffer pH. Based on this profile, relative enzyme activity was also measured in four different buffers (MES, imidazole, ADA, and sodium phosphate) each present as a 50 mM concentration at pH 6.5. Relative activities were measured at a single saturating substrate concentration (4 mM) using ΔU2SHNS.
These parameters included pH, temperature, ionic strength, and possible divalent metal ion dependency.
37° C. was the default temperature at which all of the preliminary biochemical experiments were conducted. We measured both relative enzyme activity and stability as a function of varying reaction temperature (FIG. 6, Paenl (C)). The 2-O sulfatase was active over a fairly broad temperature range (25° C. to 37° C.), with optimal activity occurring at 30° C. Enzyme activity was compromised at 42° C. Enzyme stability at this temperature was likewise affected as assessed in pre-incubation experiments conducted at varying temperatures (30° C.→42° C.) prior to measuring 2-O sulfatase activity at 30° C.

[10] = −85° C., 10% glycerol

CC(=O)N[C@H]1C(O)O[C@H](CO)[C@H](OS(=O)(=O)O)[C@@H]1O[C@@H]1OC(C(=O)O)=C[C@H](O)[C@H]1OS(=O)(=O)O (some centres unmarked) [ΔU2SGalNAc,4S]
substrate desulfated (2-O sulfatase [1]): less than 10%

CC(=O)NC1C(OC2C(C(=O)O)OC(OC3C(COS(=O)(=O)O)OC(O)C(NS(=O)(=O)O)C3OS(=O)(=O)O)C(O)C2O)OC(COS(=O)(=O)O)C(OC2OC(C(=O)O)C(OC3OC(COS(=O)(=O)O)C(OC4OC(C(=O)O)C(OC5OC(COS(=O)(=O)O)C(OC6OC(C(=O)O)C(OC7OC(COS(=O)(=O)O)C(OC8OC(C(=O)O)=CC(O)C8OS(=O)(=O)O)C(O)C7NS(=O)(=O)O)C(O)C6OS(=O)(=O)O)C(O)C5NS(=O)(=O)O)C(O)C4OS(=O)(=O)O)C(O)C3NS(=O)(=O)O)C(O)C2O)C1O [AT-10, ΔU2SHNS,6SI2SHNS,6SI2SHNS,6SIHNAc,6SGHNS,3S,6S]
disappearance of disaccharide ΔU2SHNS,6S in compositional analysis ([2]; 2-O sulfatase then exhaustive heparinase treatment, CE): by only one-third | sulfates lost after exhaustive 2-O sulfatase treatment (mass spectrometry) ([2]; MALDI-MS): Loss of a single sulfate

[Cl][Mn][Cl] [MnCl2]
effect of additive on enzyme activity (2-O sulfatase [3]): no substantive effect

O[C@@H](CS)[C@@H](O)CS [DTT]
effect of additive on enzyme activity (2-O sulfatase [3]): not inhibited

[Ca+2].[Cl-].[Cl-] [CaCl2]
effect of additive on enzyme activity (2-O sulfatase [3]): no substantive effect

O=C(O)c1cc(SSc2ccc([N+](=O)[O-])c(C(=O)O)c2)ccc1[N+](=O)[O-] [DTNB]
effect of additive on enzyme activity (2-O sulfatase [3]): not inhibited

[Cl-].[Cl-].[Mg+2] [MgCl2]
effect of additive on enzyme activity (2-O sulfatase [3]): no substantive effect

CC(=O)N[C@H]1C(O)O[C@H](COS(=O)(=O)O)[C@H](O)[C@@H]1O[C@@H]1OC(C(=O)O)=C[C@H](O)[C@H]1OS(=O)(=O)O (some centres unmarked) [ΔU2SGalNac.6S]
Km ([4]; 25 nM 2-O ΔN^1-24, 50 mM imidazole pH 6.5, 50 mM NaCl, 30° C., chondroitin disaccharide approximated from double reciprocal plots): > 10000 µM | kcat ([4]; 25 nM 2-O ΔN^1-24, 50 mM imidazole pH 6.5, 50 mM NaCl, 30° C., substrate 0.1-4 mM, chondroitin disaccharide approximated from double reciprocal plots): <100 s⁻¹ | hydrolysis under the standard kinetic conditions ([4]; same kinetic conditions as heparin disaccharides): albeit neglibly, hydrolyzed; also recorded: only neglibly hydrolyzed | substrate desulfated (2-O sulfatase [1]): approximately 40%

O=C(O)CN(CCN(CC(=O)O)CC(=O)O)CC(=O)O [EDTA]
effect of additive on enzyme activity (2-O sulfatase [3]): largely unaffected | inhibition of activity (2-O sulfatase [3]; preincubation of enzyme with 5 mM EDTA, trisulfated disaccharide substrate): approximately 10%

O=C(O)C1=C[C@H](O)[C@@H](OS(=O)(=O)O)[C@H](O[C@H]2[C@H](O)[C@@H](NS(=O)(=O)O)C(O)O[C@@H]2COS(=O)(=O)O)O1 (some centres unmarked) [ΔU2SHNS,6S]
position specificity of desulfation by the recombinant sulfatase ([4]; ΔU2SHNS,6S versus ΔUHNS,6S, CE): only hydrolyzed a single sulfate, namely, the one found at the 2-OH position

B1: 2-O sulfatase (2-O ΔN^1-24) (Pedobacter heparinus DSM 2366) (protein)
chain: QTSKVAASRPNIIIIMTDQQTADAMSNAGNKDLHTPAMDVLAANGTRFTRAYCAQPLCTPSRSAIFSGKMPHETGFTGNTPEKDGQWPDSVLMMGKIFKAGGYKTGYVGKWHLPVPVTKVAQHGFETIENTGMGDYTDAVTPSQCANFIKKNKDNPFLLVASFLNPHDICEWARGDNLKMDVLDAAPDTAFCPKLPANWPIPAFEPAIVREQQKVNPRTYPSVGWNESQWRKYRWAYNRLVEKVDNYMAMVLGSLKKYGIEDNTIIIFTSDHGDGYAAHEWNQKQILYEEAARIPFIISKIGQWKARTDDQLVCNGIDIIPTICGFAGIAKPVGLKGLDLSKRIANPSVKLRDTLVIETDFADNELLLGIKGRAVITKDFKYIVYDKGEIREQLFDLEKDAGEMDNLAVKPAYKKKLNEMRAYLKLWCKQHQDSFYALKK
Km [5]: 4660 µM | kcat [5]: 673 s⁻¹ | kcat/Km [5]: 144000 M⁻¹ s⁻¹ | Km [6]: 515 µM | kcat [6]: 1670 s⁻¹ | kcat/Km [6]: 3.25e+06 M⁻¹ s⁻¹ | Km [7]: 1060 µM | kcat [7]: 911 s⁻¹ | kcat/Km [7]: 859000 M⁻¹ s⁻¹ | Km [8]: 87 µM | kcat [8]: 814 s⁻¹ | kcat/Km [8]: 9.36e+06 M⁻¹ s⁻¹

B2: 2-O sulfatase: recombinant F. heparinum 2-O sulfatase expressed in E. coli; experiments used the truncated enzyme with the histidine tag cleaved (protein, listed as Flavobacterium heparinum)
chain: MKMYKSKGWLIAMLILAGFGDAGAQTSKVAASRPNIIIIMTDQQTADAMSNAGNKDLHTPAMDVLAANGTRFTRAYCAQPLCTPSRSAIFSGKMPHETGFTGNTPEKDGQWPDSVLMMGKIFKAGGYKTGYVGKWHLPVPVTKVAQHGFETIENTGMGDYTDAVTPSQCANFNKKNKDNPFLLVASFLNPHDICEWARGDNLKMDVLDAAPDTAFCPKLPANWPIPAFEPAIVREQQKVNPRTYPSVGWNESQWRKYRWAYNRLVEKVDNYMAMVLGSLKKYGIEDNTIIIFTSDHGDGYAAHEWNQKQILYEEAARIPFIISKIGQWKARTDDQLVCNGIDIIPTICGFAGIAKPVGLKGLDLSKRIANPSVKLRDTLVIETDFADNELLLGIKGRAVITKDFKYIVYDKGEIREQLFDLEKDAGEMDNLAVKPAYKKKLNEMRAYLKLWCKQHQDSFYALKK
pH activity range ([9]; 50 mM MES / MOPS, pH 5 to 8): 6.0-7.0 | pH optimum of activity (catalytic efficiency) ([9]; 50 mM MES / MOPS, pH 5 to 8): 6.5 | enzyme activity at 42° C. ([9]; 42° C.): compromised | NaCl concentration of optimal activity ([9]; NaCl titration): approximately 50 mM | activity at outlying pH values of 5 and 8 [9]: essentially no activity | activity at outlying pH values of 5 and 8 ([9]; listed as flavobacterial sulfatase): essentially inactive | temperature of optimal activity ([9]; varying reaction temperature): 30 °C | activity after long-term storage, freezing and thawing [10]: without any subsequent loss of activity

Source: patent US7429474B2, “2-O sulfatase compositions and methods of analyzing therewith” (Massachusetts Institute of Technology, priority 2003, dated 2008)
